How the values were obtained:
Assay in all cases: cells, lysate or membranes named
[1] = substrate: O=C(CO)COP(=O)(O)O; assay type: biochemical, T. thermophilus; settings: other: substrate dihydroxyacetone phosphate 0.15-1.5 mM, crude extract, imidazole-HCl pH 7.0, 30° C.
Source text: (§1) 1,2-Propanediol pathway branches from glycolysis and competes for the intermediate dihydroxyacetone phosphate, with the glycolytic pathway. […] We amplified the mgsA genes from the microorganisms: C. acetobutylicum (ATCC#824), B. subtilis 168, C. difficile R20291, E. coli MG1655, T. thermophilus HB27, K. pneumoniae MGH78578, P. fluorescens Pf-5, and R. eutropha H16 respectively. These genes were cloned and expressed in wild type E. coli BW25113 using eight plasmids pRJ1-pRJ8. Each gene was under the control of the IPTG-inducible pLlacO1 promoter. Using dihydroxyacetone-phosphate as the substrate, we successfully detected the functional expression of all mgsA genes in vitro, where the specific activities varied from 0.0052 U/mg to 0.1242 U/mg (Table 1). […] Without the over-expression of mgsA gene, we also detected the native expression of E. coli mgsA, which gave a specific activity of only 0.0008 U/mg, much lower than that of any over-expression.
(§2) Using the primers listed in Table 5, the mgsA genes were PCR amplified from the genomic DNA of C. acetobutylicum (ATCC824), B. subtilis 168, Clostridium difficile R20291, E. coli MG1655, Thermus thermophilus HB27, K. pneumoniae MGH78578, Pseudomonas fluorescens Pf-5, and Ralstonia eutropha H16 respectively. […]
(§3) The assay was carried out using a two-step procedure. […] The samples were diluted 10 times before measuring the absorbance at 550 nm.

[2] = substrate: O=C(CO)COP(=O)(O)O; assay type: biochemical, P. fluorescens; settings: other: substrate dihydroxyacetone phosphate 0.15-1.5 mM, crude extract, imidazole-HCl pH 7.0, 30° C.
Source text: as §1, §2, §3

[3] = substrate: O=C(CO)COP(=O)(O)O; assay type: biochemical, R. eutropha; settings: other: substrate dihydroxyacetone phosphate 0.15-1.5 mM, crude extract, imidazole-HCl pH 7.0, 30° C.
Source text: as §1, §2, §3

[4] = substrate: O=C(CO)COP(=O)(O)O; assay type: biochemical, B. subtilis; settings: other: substrate dihydroxyacetone phosphate 0.15-1.5 mM, crude extract, imidazole-HCl pH 7.0, 30° C.
Source text: as §1, §2, §3

[5] = substrate: CC(=O)C=O; assay type: biochemical, E. coli; settings: other: substrate methylglyoxal 20-120 mM, 0.25 mM NADH, crude extract, imidazole-HCl pH 7.0, 37° C.
Experimental: When the gene is over-expressed by pRJ10, the specific activity was determined to be 1.62±0.012 U/mg.

[6] = substrate: O=C(CO)COP(=O)(O)O; assay type: biochemical, C. acetobutylicum; settings: other: substrate dihydroxyacetone phosphate 0.15-1.5 mM, crude extract, imidazole-HCl pH 7.0, 30° C.
Source text: as §1, §2, §3

B1: Thermus thermophilus HB27 methylglyoxal synthase (mgsA), wild type (Thermus thermophilus HB27) (protein)
chain: MKALALIAHDAKKDEMVAFCLRHKDVLARYPLLATGTTGARIQEATGLAVERVLSGPLGGDLQIGARVAEGKVLAVVFLQDPLTAKPHEPDVQALMRVCNVHGVPLATNLVAAEALIAWIRKGTPQ
[1]
  Km: 2118 ± 70 µM

B2: Pseudomonas fluorescens Pf-5 methylglyoxal synthase (mgsA), wild type (Pseudomonas protegens Pf-5) (protein)
chain: MIGISFTHKTMAARKRIALVAHDHCKAFLLEWAGRQKARLAEHELVATGTTGLLLSKHLGLPVESMISGPLGGDQQLGAQIAEQRVDLLVFFWDPFEPQPHDPDIKALLRVAAVWNIPVACNECSADYLLSSPLMNQAHEHRIPDYQAYLAGRG
[2]
  Km: 1560 ± 20 µM

B3: Ralstonia eutropha H16 methylglyoxal synthase (mgsA), wild type (Cupriavidus necator H16) (protein)
chain: MTRPRIALIAHDHKKDDIVAFATRHRAFLSQCELLATGTTGGRLIDEVGLEVTRMLSGPWGGDLQIGAQLAVGLVRAVVFLRDPMTPQPHEPDINALVRACDVHNVPCATNVATAELLIAGLAREVDEAAAS
[3]
  Km: 700 ± 30 µM

B4: Bacillus subtilis 168 methylglyoxal synthase (mgsA), wild type (Bacillus subtilis subsp. subtilis str. 168) (protein)
chain: MKIALIAHDKKKQDMVQFTTAYRDILKNHDLYATGTTGLKIHEATGLQIERFQSGPLGGDQQIGALIAANALDLVIFLRDPLTAQPHEPDVSALIRLCDVYSIPLATNMGTAEILVRTLDEGVFEFRDLLRGEEPNV
[4]
  Km: 473 ± 70 µM

B5: E. coli MG1655 methylglyoxal reductase (ydjG), wild type (Escherichia coli K-12) (protein)
chain: MKKIPLGTTDITLSRMGLGTWAIGGGPAWNGDLDRQICIDTILEAHRCGINLIDTAPGYNFGNSEVIVGQALKKLPREQVVVETKCGIVWERKGSLFNKVGDRQLYKNLSPESIREEVAASLQRLGIDYIDIYMTHWQSVPPFFTPIAETVAVLNELKSEGKIRAIGAANVDADHIREYLQYGELDIIQAKYSILDRAMENELLPLCRDNGIVVQVYSPLEQGLLTGTITRDYVPGGARANKVWFQRENMLKVIDMLEQWQPLCARYQCTIPTLALAWILKQSDLISILSGATAPEQVRENVAALNINLSDADATLMREMAEALER
[5]
  Km: 3310 ± 20 µM

B6: Clostridium acetobutylicum (ATCC 824) methylglyoxal synthase (mgsA), wild type (Clostridium acetobutylicum ATCC 824) (protein)
chain: MNSKKKIALVAHDNRKKALISWCEANSEVLSNHSLCGTGTTAKLIKEATGLEVFPYKSGPMGGDQQIGAAIVNEDIDFMIFFWDPLTAQPHDPDVKALLRISVLYDIPIAMNESTAEFLIKSPIMKEQHERHIIDYYQKIRKDNF
[6]
  Km: 776 ± 5 µM
